Legend:
human VEGF-A165 (human) [1] = experiment: fluorescence correlation spectroscopy; 1-5 nM ATTO 647N-labelled growth factor with 0.1 nM to 20 μM unlabelled CD44 ectodomain; at least 3 h at room temperature; PBS with 0.05% Tween-20; 20°C; diffusion times fitted with a 1:1 binding model
human VEGF-A165 (human) [2] = experiment: fluorescence correlation spectroscopy; as the FCS series, but VEGF165 labelled with NT 647 (Table 1)
human VEGF-A165 (human) [3] = experiment: MST; 10 nM NT-647-labelled HGF or VEGF165 with serial dilutions of the unlabelled partner; 22°C, PBS plus 1% BSA; Monolith NT.115

rat CD44v6 ectodomain, hexahistidine-tagged (from UniProt P26051 22-410) (domain or fragment)
Kd (human VEGF-A165 (human) [1]): 65 nM
Kd (human VEGF-A165 (human) [2]): 200 nM
Kd (human VEGF-A165 (human) [3]): 51 nM

Source: article PMC4721543
